For three substances, Kd results are on record in article PMC5863373.

The target of assay [1] is human mitochondrial lysyl-tRNA synthetase with a C-terminal HA-tag (human) (UniProt Q15046). As to the kind of experiment: AlphaScreen or HTRF; HTRF; 1.5 nM mLysRS-HA or mLysRS∆C-HA (dimer) with rising His-tagged Pol (0.02 to 10 nM dimer), IN (0.5 to 125 nM dimer) or TF (1 to 1000 nM monomer); 10 mM Tris-HCl pH 7.5, 50 mM NaCl, 10 mM 2-mercaptoethanol, BSA 1 mg/ml, 1 h on ice; anti-H6-Eu3+ cryptate and anti-HA-XL665; apparent Kd.

The target is the same in assay [2]. The description is as above. The source holds these as a separate data set.
A further assay addresses p38 (Homo sapiens) (UniProt Q13155). As to the kind of experiment: SPR. Conditions: cited from earlier work.
In assay [3] the target is human mitochondrial lysyl-tRNA synthetase with a C-terminal HA-tag (human) (UniProt Q15046). The assay is described as follows: AlphaScreen or HTRF; HTRF as in a1, Pol on mLysRS in the presence of 1 μM tRNA3^Lys. For orientation: Alpha assays give light when donor and acceptor beads are brought close together.

p38 (Homo sapiens), sequence (Q13155 whole entry): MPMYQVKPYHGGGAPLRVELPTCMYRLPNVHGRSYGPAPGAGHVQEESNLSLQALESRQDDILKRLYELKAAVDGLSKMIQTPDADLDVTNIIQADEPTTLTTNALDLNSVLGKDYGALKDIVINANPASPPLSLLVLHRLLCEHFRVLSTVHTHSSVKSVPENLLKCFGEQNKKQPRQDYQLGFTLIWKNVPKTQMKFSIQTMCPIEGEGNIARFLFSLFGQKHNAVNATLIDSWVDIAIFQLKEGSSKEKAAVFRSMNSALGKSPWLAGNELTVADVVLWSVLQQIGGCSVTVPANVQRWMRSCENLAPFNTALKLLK

As for “HIV-1 integrase with a C-terminal His6 tag (domain or fragment)”, the Kd in assay [1] is 11.8 nM; in assay [2], 12.9 nM.
As for mLysRS (from UniProt Q15046), the Kd in the assay with p38 (Homo sapiens) is 0.3 nM.
Take “HIV-1 Pol polyprotein (Pol region of GagPol) with a C-terminal His6 tag (natural protein)”: the Kd in assay [1] was 1.3 nM; in assay [3], 0.71 nM.
